Results taken from the supplement of paper PMC9112550, “Optimization of the antimicrobial peptide Bac7 by deep mutational scanning” (BMC Biology, 2022).

These sequences were tested on Escherichia coli TOP10 (assay: shrunken log2 fold change of peptide-encoding DNA abundance (4.5 h post-induction vs induction); higher = less antimicrobial activity (less host growth inhibition)). Settings: time post-induction: 4.5 h; library: site-saturation at positions 5, 18, 19, 20.
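Further: peptides expressed intracellularly from a pBAD plasmid library in pooled LB shake-flask culture, induced with 0.3% L-arabinose, DNA abundance read by NGS, three biological replicates, DESeq2 with apeglm shrinkage.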

Point of comparison: RRIRERPPRLPRPRPRPDPYPRP, “shrunken log2 fold change” value -0.0291. Against it:
- RRIRARPPRLPRPRPRPFHCPRP — higher, 0.252
- RRIRMRPPRLPRPRPRPVFEPRP — higher, 0.59
- RRIRLRPPRLPRPRPRPKPLPRP — within 0.2 log units, 0.144
- RRIRPRPPRLPRPRPRPVDEPRP — within 0.2 log units, 0.0247
- RRIRLRPPRLPRPRPRPLHCPRP — within 0.2 log units, 0.118
- RRIRGRPPRLPRPRPRPDNVPRP — within 0.2 log units, -0.011
- RRIRVRPPRLPRPRPRPWDCPRP — within 0.2 log units, -0.0389
- RRIRGRPPRLPRPRPRPSHKPRP — within 0.2 log units, -0.157
- RRIRCRPPRLPRPRPRPLFSPRP — higher, 2.05
- RRIRTRPPRLPRPRPRPYANPRP — within 0.2 log units, -0.00264
- RRIRIRPPRLPRPRPRPNKPPRP — within 0.2 log units, -0.119
- RRIRGRPPRLPRPRPRPCSYPRP — within 0.2 log units, 0.089
- RRIRCRPPRLPRPRPRPMWRPRP — higher, 0.276
- RRIRWRPPRLPRPRPRPFENPRP — within 0.2 log units, -0.15
- RRIRERPPRLPRPRPRPTQNPRP — higher, 0.262
- RRIRGRPPRLPRPRPRPRSYPRP — higher, 0.288
- RRIRQRPPRLPRPRPRPGPIPRP — higher, 0.253
- RRIRDRPPRLPRPRPRPHPQPRP — higher, 0.256
- RRIRKRPPRLPRPRPRPSYCPRP — lower, -0.251
- RRIRIRPPRLPRPRPRPEVLPRP — within 0.2 log units, -0.0175
- RRIRKRPPRLPRPRPRPCGCPRP — higher, 0.249
- RRIRHRPPRLPRPRPRPMARPRP — within 0.2 log units, 0.0467
- RRIRTRPPRLPRPRPRPRKQPRP — within 0.2 log units, 0.0743
- RRIRERPPRLPRPRPRPGIAPRP — within 0.2 log units, -0.183
- RRIRRRPPRLPRPRPRPTSLPRP — within 0.2 log units, 0.0087
- RRIRFRPPRLPRPRPRPKMVPRP — within 0.2 log units, -0.0413
- RRIRVRPPRLPRPRPRPFAPPRP — within 0.2 log units, 0.0601
- RRIRFRPPRLPRPRPRPPGIPRP — within 0.2 log units, 0.151
- RRIRLRPPRLPRPRPRPHICPRP — within 0.2 log units, -0.162
- RRIRHRPPRLPRPRPRPNIKPRP — lower, -0.69
- RRIRWRPPRLPRPRPRPWVVPRP — higher, 1.61
- RRIRGRPPRLPRPRPRPREHPRP — higher, 0.783
- RRIRLRPPRLPRPRPRPPDWPRP — higher, 0.427
- RRIRTRPPRLPRPRPRPDGCPRP — within 0.2 log units, 0.127
- RRIRFRPPRLPRPRPRPKSEPRP — within 0.2 log units, -0.213
- RRIRQRPPRLPRPRPRPISKPRP — within 0.2 log units, -0.0725
- RRIRYRPPRLPRPRPRPERSPRP — within 0.2 log units, -0.00131
- RRIRHRPPRLPRPRPRPTWYPRP — lower, -0.674
- RRIRCRPPRLPRPRPRPHEHPRP — higher, 1.94
- RRIRVRPPRLPRPRPRPTWCPRP — higher, 0.216
- RRIRFRPPRLPRPRPRPACLPRP — within 0.2 log units, -0.105
- RRIRCRPPRLPRPRPRPNCSPRP — within 0.2 log units, 0.0117
- RRIRQRPPRLPRPRPRPVELPRP — within 0.2 log units, 4.07e-05
- RRIRPRPPRLPRPRPRPDMFPRP — higher, 2.58
- RRIRGRPPRLPRPRPRPCMHPRP — higher, 0.363
- RRIRTRPPRLPRPRPRPKLGPRP — within 0.2 log units, 0.106
- RRIRWRPPRLPRPRPRPCIKPRP — within 0.2 log units, 0.0427
- RRIRNRPPRLPRPRPRPWYDPRP — within 0.2 log units, -0.0695
- RRIRSRPPRLPRPRPRPHCYPRP — lower, -0.302
- RRIRERPPRLPRPRPRPVCWPRP — higher, 0.337
- RRIRFRPPRLPRPRPRPDHGPRP — within 0.2 log units, 0.0405
- RRIRIRPPRLPRPRPRPKVWPRP — within 0.2 log units, -0.0123
- RRIRARPPRLPRPRPRPQCHPRP — higher, 0.441
- RRIRKRPPRLPRPRPRPLSYPRP — within 0.2 log units, -0.0509
- RRIRDRPPRLPRPRPRPYTKPRP — lower, -1.06
- RRIRRRPPRLPRPRPRPRHIPRP — higher, 0.945
- RRIRVRPPRLPRPRPRPRVVPRP — higher, 0.2
- RRIRLRPPRLPRPRPRPVNLPRP — within 0.2 log units, 0.0275
- RRIRCRPPRLPRPRPRPWVAPRP — within 0.2 log units, -0.0206
- RRIRKRPPRLPRPRPRPRQGPRP — higher, 0.708
- RRIRQRPPRLPRPRPRPLGSPRP — within 0.2 log units, 0.0483
- RRIRHRPPRLPRPRPRPQSKPRP — lower, -0.342
- RRIRKRPPRLPRPRPRPRPCPRP — higher, 0.365
- RRIRVRPPRLPRPRPRPMRWPRP — within 0.2 log units, 0.0506
- RRIRQRPPRLPRPRPRPGEIPRP — lower, -0.366
- RRIRVRPPRLPRPRPRPPGGPRP — higher, 0.598
- RRIRTRPPRLPRPRPRPTGHPRP — within 0.2 log units, 0.131
- RRIRRRPPRLPRPRPRPIKEPRP — within 0.2 log units, 0.0124
- RRIRVRPPRLPRPRPRPATFPRP — lower, -0.387
- RRIRERPPRLPRPRPRPYWWPRP — within 0.2 log units, -0.142
- RRIRGRPPRLPRPRPRPVAAPRP — higher, 1.73
- RRIRARPPRLPRPRPRPRYVPRP — lower, -0.25
- RRIRMRPPRLPRPRPRPSIQPRP — within 0.2 log units, 0.0104
- RRIRIRPPRLPRPRPRPTHWPRP — within 0.2 log units, 0.133
